Positions count from the first letter of the chain named.
Experiments:
[1] = molecular target: T1, human CA9 (carbonic anhydrase IX) (human, UniProt Q16790 38-414); experiment: BIAcore T100, mAb captured on anti-human IgG, antigen as analyte, 1:1 model; mAb purified by protein A (ProA); protein A (ProA) purified, not decapped
Method: (§1) Antibody concentrations were adjusted to generate 30-40 RU signal when bound to the antigen. […] The sensor surface was washed by injecting HBS-P buffer for 1 min at a flow rate of 50 μL/min. To record the antigen association to the captured mAb, a series of increasing concentrations of antigen was injected for 60 sec at a flow rate of 50 μL/min. The dissociation of antigen was monitored for 30 min at the same flow rate. The sensor surface was regenerated by injecting 3 M MgCl₂ for 1 min and then 30 sec at a flow rate of 30 μL/min. Sensograms were analyzed with Biacore T100 Evaluation Software using a 1:1 Langmuir binding model.
(§2) xi155D5 and the humanized variants were purified by standard protein A chromatography or the decapping method, and their affinity was analyzed using BIAcore (Table 13).

[2] = molecular target: T1, human CA9 (carbonic anhydrase IX); experiment: SPR (BIAcore), biotin-CA9 captured on CAP chip, antibody 0-50 nM as analyte
Method: To determine if chimerization, and therefore the loss of Cys80-Cys171 disulfide bond, results in structural perturbations leading to loss of antigen binding, the binding affinity of mAbs 155D5, xi155D5, 1-55-2, and xi1-55-2 by surface plasmon resonance was evaluated. Biotinylated ligand (biotin-hTEM1 for 1-55-2, biotin-CA9 for 155D5) was captured on a coated biotin CAP BIAcore chip (GE Healthcare, Piscataway, N.J.) using HBS-EP as running buffer. Final antigen capture levels were 130 RU and 280 RU, respectively, for biotin-TEM1 and biotin-CA9. Serial dilutions of antibody (120 μL of 0-50 nM) were passed over the ligand-coated chip. […] The chip surface was regenerated with 6 M GuHCl, 250 mM NaOH. Sensograms were double referenced and kinetic parameters were determined using BIAEvaluations software (ver. 4.1).

[3] = molecular target: T1, human CA9 (carbonic anhydrase IX); experiment: BIAcore T100, mAb captured on anti-human IgG, antigen as analyte, 1:1 model; mAb purified by protein A (ProA)
Method: as §1, §2

[4] = molecular target: T2, human endosialin/TEM1 extracellular domain fused to mouse IgG2b Fc (human); experiment: SPR, ligand TEM1-Fc, flow cell Fc3
T2 construct: also called TEM1-Fc
T2 chain: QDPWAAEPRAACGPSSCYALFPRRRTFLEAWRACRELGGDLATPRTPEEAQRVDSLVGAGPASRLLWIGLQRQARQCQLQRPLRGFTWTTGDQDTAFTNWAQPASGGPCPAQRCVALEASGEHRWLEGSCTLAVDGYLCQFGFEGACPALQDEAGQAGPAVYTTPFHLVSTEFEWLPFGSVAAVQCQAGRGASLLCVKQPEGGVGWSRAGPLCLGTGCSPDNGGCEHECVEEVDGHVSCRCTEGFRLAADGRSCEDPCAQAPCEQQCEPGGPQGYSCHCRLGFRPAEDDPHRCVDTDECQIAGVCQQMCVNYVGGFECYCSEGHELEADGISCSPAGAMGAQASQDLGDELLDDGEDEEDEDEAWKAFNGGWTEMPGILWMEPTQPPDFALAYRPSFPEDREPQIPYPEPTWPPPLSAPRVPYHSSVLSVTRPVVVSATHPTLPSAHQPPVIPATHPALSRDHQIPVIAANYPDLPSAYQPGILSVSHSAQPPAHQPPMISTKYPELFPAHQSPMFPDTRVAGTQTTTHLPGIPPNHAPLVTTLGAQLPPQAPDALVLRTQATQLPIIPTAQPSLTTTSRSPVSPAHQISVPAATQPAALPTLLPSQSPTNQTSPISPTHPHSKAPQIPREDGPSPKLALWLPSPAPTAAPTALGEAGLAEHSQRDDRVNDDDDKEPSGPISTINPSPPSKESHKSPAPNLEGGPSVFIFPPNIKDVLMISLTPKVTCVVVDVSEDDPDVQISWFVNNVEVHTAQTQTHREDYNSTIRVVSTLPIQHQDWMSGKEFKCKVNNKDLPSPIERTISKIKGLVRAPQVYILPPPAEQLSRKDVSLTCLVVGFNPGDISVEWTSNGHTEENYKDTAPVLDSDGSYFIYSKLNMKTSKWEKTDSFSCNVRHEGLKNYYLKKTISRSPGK

[5] = molecular target: T1, human CA9 (carbonic anhydrase IX); experiment: SPR, ligand CA9, flow cell Fc3
[6] = molecular target: T1, human CA9 (carbonic anhydrase IX); experiment: SPR, ligand CA9, flow cell Fc4
[7] = molecular target: T2, human endosialin/TEM1 extracellular …; experiment: SPR, ligand TEM1-Fc, flow cell Fc4
human MSLN (mesothelin) [8] = molecular target: T3, human MSLN (mesothelin) (human, UniProt Q13421 296-598); experiment: ELISA on human MSLN, B cell culture supernatant, 2nd screening
T3 construct: The construct coated on the plates is not described; also called human mesothelin

human CD73 [9] = molecular target: T4, human CD73 (human, UniProt P21589 27-547, limits assumed); experiment: ELISA on control antigen human CD73, B cell culture supernatant, 2nd screening
T4 construct: also called control antigen
T4 sequence (looked up): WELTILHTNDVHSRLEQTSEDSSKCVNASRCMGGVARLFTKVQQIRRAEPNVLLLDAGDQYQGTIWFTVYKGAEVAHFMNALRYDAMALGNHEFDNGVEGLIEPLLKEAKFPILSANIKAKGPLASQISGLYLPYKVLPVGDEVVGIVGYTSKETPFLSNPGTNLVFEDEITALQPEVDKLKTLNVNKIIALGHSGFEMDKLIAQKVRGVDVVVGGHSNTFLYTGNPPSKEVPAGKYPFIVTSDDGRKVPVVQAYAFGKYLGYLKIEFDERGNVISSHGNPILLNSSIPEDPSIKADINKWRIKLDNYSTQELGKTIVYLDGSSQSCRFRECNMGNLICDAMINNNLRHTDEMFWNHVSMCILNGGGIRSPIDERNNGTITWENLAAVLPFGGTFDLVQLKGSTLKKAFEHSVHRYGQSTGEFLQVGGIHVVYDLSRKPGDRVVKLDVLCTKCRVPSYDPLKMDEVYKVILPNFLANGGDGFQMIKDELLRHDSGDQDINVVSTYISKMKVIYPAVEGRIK

human CD73 [10] = molecular target: T4, human CD73; experiment: ELISA, B cell culture supernatant, 2nd screening
human MSLN (mesothelin) [11] = molecular target: T3, human MSLN (mesothelin); experiment: ELISA on human MSLN, B cell culture supernatant, 1st screening

T3 sequence (Q13421 other isoform, or with tags, fused parts or gaps limits assumed, form in doubt): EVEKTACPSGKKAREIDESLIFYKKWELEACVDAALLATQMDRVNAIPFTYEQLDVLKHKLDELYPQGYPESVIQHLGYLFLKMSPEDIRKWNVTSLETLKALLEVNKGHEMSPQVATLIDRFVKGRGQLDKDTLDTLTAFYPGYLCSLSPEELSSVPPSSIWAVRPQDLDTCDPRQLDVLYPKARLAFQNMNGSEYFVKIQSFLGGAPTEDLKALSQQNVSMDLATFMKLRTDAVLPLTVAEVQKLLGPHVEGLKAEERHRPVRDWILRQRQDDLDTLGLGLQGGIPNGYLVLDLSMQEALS

B1: xi155D5 (rabbit/human chimerized 155D5 mAb) (antibody, human IgG1, kappa, V domains shown)
VH: QSVKESGGRLVTPGTPLTLTCTVSGFSLNSYAMIWVRQAPGEGLEYIGFITTGGTTYYASWAKGRFTISRTSTTVDLKLTRPTTEDTATYFCARDRVKSYDDYGDLDAFEPWGPGTLVTISS
VL: ELVMTQTPSSVSAAVGGTVTINCQASQSISSYLAWYQQKPGQPPKLLIYYASTLASGVPSRFKGSGSGTEFTLTITGVQCDDAATYYCLGVYGYSFDDGIAFGGGTELEIKR
notes: Human IgG1 kappa constant regions; Unpaired Cys80 of the light chain is capped by a free cysteine after plain protein A purification; also called xi155D5 mAb
In the case of B1, the kon [1] is reported as 458000 M⁻¹ s⁻¹, the Kd [2] is reported as 0.051 nM and the koff [2] is reported as 2.4e-05 s⁻¹. The kon [2] was 460000 M⁻¹ s⁻¹, the Kd [3] was 0.324 nM and the koff [3] was 0.000149 s⁻¹.

B2: xi155D5/xi1-55-2 bivalent/bispecific antigen-binding molecule (bispecific antibody)
heavy 1: B1 VH
light 1: ELVMTQTPSSVSAAVGGTVTINCQASQSISSYLAWYQQKPGQPPKLLIYYASTLASGVPSRFKGSGSGTEFTLTITGVQCDDAATYYCLGVYGYSFDDGIAFGGGTELEIKRTVAAPSVFIFPPSDEQLKSGTASVVCLLNNFYPREAKVQWKVDNALQSGNSQESVTEQDSKDSTYSLSSTLTLSKADYEKHKVYACEVTHQGLSSPVTKSFNRGEC
heavy 2: QSVEESGGDLVKPEGSLTLTCTASGFSFSSSYWGCWVRQAPGKGPEWIACIYGGSSGTTYYPNWAKGRFSISKTSSTTVTLQMASLTAADTATYFCARVTNGGDWDFKLWGPGTLVTISS
light 2: ELVMTQTPASVEVAVGGTVTIKCQASQSINTYLAWYQQKPGQPPKLLIYRASTLASGVPSRFKGSGSGTEFTLTISDLECADAATYYCQQSVRVIDVDNTFGGGTEVVVKRTVAAPSVFIFPPSDEQLKSGTASVVCLLNNFYPREAKVQWKVDNALQSGNSQESVTEQDSKDSTYSLSSTLTLSKADYEKHKVYACEVTHQGLSSPVTKSFNRGEC
modifications: maleimido-PEG4-azide on Cys80, joined by copper-free click chemistry to the DBCO on Cys80 of the xi155D5 light chain; maleimido-PEG4-dibenzylcyclooctyne (DBCO) on Cys80, joined by copper-free click chemistry to the azide on Cys80 of the xi1-55-2 light chain
notes: Two papain Fabs linked chemically through their light chain Cys80 residues; mass 95,939 Da by mass spectrometry; also called biFab; bivalent/bispecific Fab-Fab; not shown: human IgG1 CH1 and hinge up to the papain cleavage site
For B2, the Kd [4] was 0.31 nM, the koff [4] was 0.000257 s⁻¹ and the kon [4] was 829000 M⁻¹ s⁻¹. For the same binder, the Kd [5] was 0.121 nM, the koff [5] was 3.91e-05 s⁻¹ and the kon [5] was 322000 M⁻¹ s⁻¹. The Kd [6] was 0.15 nM, the koff [6] was 4.4e-05 s⁻¹ and the kon [6] was 294000 M⁻¹ s⁻¹. The Kd [7] was 0.185 nM, the koff [7] was 0.000189 s⁻¹ and the kon [7] was 1.02e+06 M⁻¹ s⁻¹.

B3: 33O11 (rabbit anti-MSLN mAb) (antibody, V domains shown)
VH: QSVEESGGRLVTPGTPLTLTCTVSGISLSSDAISWVRQAPGKGLEYIGIINGGGNTYYASWAKGRFTISKTSTTVDLKITSPTTEDTATYFCARGIQHGGGNSDYYYYGMDLWGPGTLVTVSS
VL: EVLMTQTPSSVSAAVGDTVTIKCQASQSISSVLSWYQQKPGQPPKLLIYLASTLASGVPSRFSGSRSGTEFTLTISDLECDDAATYYCQTNYGTSSSNYGFAFGGGTEVVVK
B3 was tested, and the “Optical Density (Anti-MSLN reactivity, 2nd screening)” value (human MSLN (mesothelin) [8]) was 0.504 OD, the “Optical Density (Anti-CD73 reactivity, 2nd screening)” value (human CD73 [9]) was 0.0818 OD and the binding result (human CD73 [10]) was “no binding”. For the same binder, the “Optical Density (Anti-MSLN reactivity, 1st screening)” value (human MSLN (mesothelin) [11]) was 0.282 OD.

B4: 178F16 (rabbit anti-MSLN mAb) (antibody, V domains shown)
VH: QSLEESGGRLVTPGTPLTLTCTASGFSLSNYAMTWVRQAPGKGLEYIGIISTGGITYYMDSAKGRFTISRTSTTVDLKMTSLTTEDTATYFCGRNAGGSYIFYYFDLWGQGTLVTVSS
VL: AFELTQTPSSVEAAVGGTVTIKCQASQSIYSYLAWYQQKPGQPPKLLIYSASTLASGVSSRFRGSGSGTEYILTISDLECADAATYYCQTYYDIVTSTFGGGTEVVVK
In the case of B4, the “Optical Density (Anti-MSLN reactivity, 2nd screening)” value (human MSLN (mesothelin) [8]) is reported as 1.88 OD, the “Optical Density (Anti-CD73 reactivity, 2nd screening)” value (human CD73 [9]) is reported as 0.141 OD and the binding result (human CD73 [10]) is reported as “no binding”. The “Optical Density (Anti-MSLN reactivity, 1st screening)” value (human MSLN (mesothelin) [11]) was 0.966 OD.

B5: 324O5 (rabbit anti-MSLN mAb) (antibody, V domains shown)
VH: B4 VH
VL: B4 VL with I72T
In the case of B5, the “Optical Density (Anti-MSLN reactivity, 2nd screening)” value (human MSLN (mesothelin) [8]) is reported as 2.22 OD, the “Optical Density (Anti-CD73 reactivity, 2nd screening)” value (human CD73 [9]) is reported as 0.0801 OD and the binding result (human CD73 [10]) is reported as “no binding”. The “Optical Density (Anti-MSLN reactivity, 1st screening)” value (human MSLN (mesothelin) [11]) was 1.4 OD.

B6: 237N18 (rabbit anti-MSLN mAb) (antibody, V domains shown)
VH: QSLEESGGRLVAPGTPLTLTCTVSGFSLSSYHMSWVRQAPGEGLEWIGGITAMSRTYYASWAKGRFTISKTSTTVHLKITSPTTEDTATYFCAREPGFVSNIWGPGTLVTVSL
VL: AVVLTQTASPVSGVVGGTVTIKCQASQNIYSNLAWYQQKPGQRPKLLMYDASTLASGVPSRFKGSGSGTQFTLTISDLECADAATYYCQSISSVDNNVFGGGTEVVVK
B6 was tested, and the “Optical Density (Anti-MSLN reactivity, 2nd screening)” value (human MSLN (mesothelin) [8]) was 0.668 OD, the “Optical Density (Anti-CD73 reactivity, 2nd screening)” value (human CD73 [9]) was 0.0918 OD and the binding result (human CD73 [10]) was “no binding”. The “Optical Density (Anti-MSLN reactivity, 1st screening)” value (human MSLN (mesothelin) [11]) was 0.362 OD.

B7: 383I18 (rabbit anti-MSLN mAb) (antibody, V domains shown)
VH: QSVEESGGRLVTPGTPLTLTCTVSGFSLSSYAMGWVRQAPGEGLEWIGTISTGGITYYASWAKGRFTISKTSTTVDLKITSPTTEDTATYFCARVGSSGYLFYFFNLWGQGTLVTVSS
VL: VFELTQTPSPVSAAVGGTVTIRCQASQNIKSYLAWYQQKPGQPPKLLIYEASILASGVSSRFKGSGSGTEFTLTISDLECADAATYYCQSYYAASSNAFGGGTEVVVK
With B7 the “Optical Density (Anti-MSLN reactivity, 2nd screening)” value (human MSLN (mesothelin) [8]) was 0.296 OD, the “Optical Density (Anti-CD73 reactivity, 2nd screening)” value (human CD73 [9]) was 0.0744 OD and the binding result (human CD73 [10]) was “no binding”. The “Optical Density (Anti-MSLN reactivity, 1st screening)” value (human MSLN (mesothelin) [11]) was 0.249 OD.

B8: xi1-55-2 Fab (Fab, V domains shown)
VH: B2 heavy 2
VL: ELVMTQTPASVEVAVGGTVTIKCQASQSINTYLAWYQQKPGQPPKLLIYRASTLASGVPSRFKGSGSGTEFTLTISDLECADAATYYCQQSVRVIDVDNTFGGGTEVVVKR
notes: Made from xi1-55-2 by limited papain digestion and protein A removal of Fc; Fabs were fully decapped; not shown: human IgG1 CH1 and hinge up to the papain cleavage site
In the case of B8, the Kd [4] is reported as 0.382 nM, the koff [4] is reported as 0.000329 s⁻¹ and the kon [4] is reported as 862000 M⁻¹ s⁻¹. For the same binder, the Kd [7] was 0.376 nM, the koff [7] was 0.000326 s⁻¹ and the kon [7] was 865000 M⁻¹ s⁻¹.
